Source: paper PMC12681905

Legend:
[1] = biological target: recombinant human LONP1 protein (human) (UniProt P36776); assay: MST; Monolith NT.115; 86 nM NHS-labelled LONP1, SOD2 from 2.85 to 22.8 uM, incubated 10 min; 80 % LED power, 80 % MST
[2] = biological target: recombinant human LONP1 protein (human) (UniProt P36776); assay: BLI; Octet R8, biotinylated LONP1 on streptavidin 2.0 biosensor; SOD2 at 0, 2.5, 5 and 10 uM for 90 s; steady-state fit
[3] = biological target: recombinant human LONP1 protein (human) (UniProt P36776); assay: SPR; Biacore T200, LONP1 covalently coupled to a CM5 chip; SOD2 from 10 to 0.3125 uM in PBS/0.01 % Tween 20, 20 ul/min; association 240 s, dissociation 420 s

## recombinant human SOD2 protein (from UniProt P04179 25-222) (enzyme)
[1]
  Kd: 1560 nM
[2]
  Kd: 13400 nM
[3]
  Kd: 220 nM
